Source: patent US20210285971A1 (ROYAL INSTITUTION FOR THE ADVANCEMENT OF LEARNING MCGILL …, published 2021)

Key:
synthetic Aβ34 peptide = target: T1, synthetic Aβ34 peptide; experiment: SPR (Biacore T200), multi-cycle titration of Aβ34 (0-1.6 µM, 3-fold series) over mab34 captured on an anti-mouse Fc sensor; steady-state affinity fit of Requilibrium against concentration
T1 construct: Synthetic peptide from PSL, Germany
Method: Using a BIACORE T200 system (GE Healthcare Bio-Sciences AB, Upsala, Sweden; v2.0 Control and v1.0 Evaluation software), SPR experiments were performed at 25° C. using filtered (0.2 μm) and degassed HBS-EP+ buffer (10 mM HEPES pH 7.4; 150 mM NaCl; 3 mM EDTA; 0.05% (v/v) Tween™-20). Using Biacore's Amine Coupling Kit, Mouse Antibody Capture Kit, and CM5 sensors, an anti-mouse Fc antibody (14 μg/mL in 10 mM sodium acetate pH 5.0) was immobilized to the flow cells (8000 RU each) as recommended by GE. […] Between each sample series, surfaces were regenerated at 50 μL/min. using two 30 sec pulses of Pierce Gentle Ag/Ab Elution Buffer pH 6.6 (Thermo Scientific #21027) as well as 10 mM glycine pH 1.7.

synthetic Aβ40 peptide = target: T2, synthetic Aβ40 peptide (UniProt P05067 672-711); experiment: SPR (Biacore T200), single-cycle kinetics, peptide as analyte (7.8-2000 nM) over mab34 captured on an anti-mouse Fc sensor
T2 construct: domain: Aβ40
Method: (§1) Using a BIACORE T200 system (GE Healthcare Bio-Sciences AB, Upsala, Sweden; v2.0 Control and v1.0 Evaluation software), SPR experiments were performed at 25° C. using filtered (0.2 μm) and degassed HBS-EP+ buffer (10 mM HEPES pH 7.4; 150 mM NaCl; 3 mM EDTA; 0.05% (v/v) Tween™-20). Using Biacore's Amine Coupling Kit, Mouse Antibody Capture Kit, and CM5 sensors, an anti-mouse Fc antibody (14 μg/mL in 10 mM sodium acetate pH 5.0) was immobilized to the flow cells (8000 RU each) as recommended by GE. To assess binding specificity, a variety of Aβ peptides (0 2 μM; 4-fold dilution series) were titrated over reference (anti-mouse Fc antibody only) and active (1000 RU mab34 captured to anti-mouse Fc antibody) surfaces in single-cycle kinetic mode (25 uL/min.×5 min. association+10 min. dissociation). Between each sample series, surfaces were regenerated at 50 μL/min. using two 30 sec pulses of Pierce Gentle Ag/Ab Elution Buffer pH 6.6 (Thermo Scientific #21027) as well as 10 mM glycine pH 1.7.

synthetic Aβ35 peptide = target: T3, synthetic Aβ35 peptide (UniProt P05067 672-706); experiment: as above
T3 construct: domain: Aβ35
Method: as §1

synthetic Aβ42 peptide = target: T4, synthetic Aβ42 peptide (UniProt P05067 672-713); experiment: as above
T4 construct: domain: Aβ42; also called Abeta42
Method: as §1

synthetic Aβ38 peptide = target: T5, synthetic Aβ38 peptide (UniProt P05067 672-709); experiment: as above
T5 construct: domain: Aβ38
Method: as §1

[1] = target: Aβ34 G33A variant (G33A modified neo-epitope); experiment: SPR (Biacore T200), single-cycle kinetics, Aβ34 variant peptide as analyte (7.8-2000 nM) over mab34 captured on an anti-mouse Fc sensor
Method: as §1

T4 sequence (P05067 672-713 limits assumed): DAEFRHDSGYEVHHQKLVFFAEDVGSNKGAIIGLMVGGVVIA
T3 sequence (P05067 672-706 limits assumed): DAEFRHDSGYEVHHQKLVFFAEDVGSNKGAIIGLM
T2 sequence (P05067 672-711 limits assumed): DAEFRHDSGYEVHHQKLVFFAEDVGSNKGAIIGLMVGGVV
T1 sequence (peptide, as listed by the source): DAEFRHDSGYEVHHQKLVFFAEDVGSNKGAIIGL
T5 sequence (P05067 672-709 limits assumed): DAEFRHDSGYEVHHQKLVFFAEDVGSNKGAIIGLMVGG
Aβ34 G33A variant (G33A modified neo-epitope), sequence (peptide, as listed by the source G33A G33A G33A G33A): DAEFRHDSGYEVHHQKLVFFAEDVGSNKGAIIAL

B1: mab34 (monoclonal neo-epitope anti-Aβ34 antibody) (antibody, V domains shown)
VH: VKLVESGGGLVKPGGSLKLSCAASGFTFSTYAMSWVRQTPEKRLEWVASISSGGNTYYPDSVKGRFTISRDNARHILYLQMSSLRSEDTAMYYCARDSYYFGNSVYYAMDYWGQGTSVTVSS
VL: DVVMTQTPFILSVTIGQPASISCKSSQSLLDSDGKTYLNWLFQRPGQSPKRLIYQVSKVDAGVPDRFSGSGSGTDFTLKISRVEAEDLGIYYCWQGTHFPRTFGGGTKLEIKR
notes: Mouse monoclonal from a hybridoma (Balb/cJ mice immunised with Aβ27-34-KLH); In SPR it was captured on an anti-mouse Fc surface
Kd (synthetic Aβ34 peptide): ~40 nM | binding result (synthetic Aβ40 peptide): no binding (tested: 2000 nM) | binding result (synthetic Aβ35 peptide): no binding (tested: 2000 nM) | binding result (synthetic Aβ42 peptide): no binding (tested: 2000 nM) | binding result (synthetic Aβ38 peptide): no binding (tested: 2000 nM) | binding result [1]: no binding (tested: 2000 nM)
